# Measured values taken from publication PMC9678342.
# pKd: −log10 of the molar value.
# Experiments:
# [1] = molecular target: HSV-1 glycoprotein D, C-terminal truncated mutant gD285 (aa 1-285) (herpes simplex virus type 1 (HSV-1)); test: AUC; sedimentation velocity, gD alone at 5, 10 and 20 uM in PBS pH 7.8, 20 C, 40k rpm, absorbance optics, c(s) distributions in SedFit; monomer and dimer species, said not to be in a monomer-dimer equilibrium
# [2] = molecular target: HSV-1 glycoprotein D, C-terminal truncated mutant gD306 (aa 1-306) (herpes simplex virus type 1 (HSV-1)); test: as above
# HVEM (Homo sapiens) = HVEM (Homo sapiens) (UniProt Q92956); settings: cited from earlier work
# Chain of UniProt Q92956 (Q92956 39-283): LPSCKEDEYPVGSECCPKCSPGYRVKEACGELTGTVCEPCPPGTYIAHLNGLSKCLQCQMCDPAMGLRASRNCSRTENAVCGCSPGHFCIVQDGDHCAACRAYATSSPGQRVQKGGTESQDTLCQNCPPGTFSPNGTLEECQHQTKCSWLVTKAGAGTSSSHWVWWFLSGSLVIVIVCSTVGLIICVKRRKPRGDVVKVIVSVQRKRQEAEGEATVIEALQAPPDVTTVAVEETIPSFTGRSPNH
substance,measurement,setting,value
"HSV-1 glycoprotein D, C-terminal truncated mutant gD285 (aa 1-285) (domain or fragment)",stoichiometry N,[1],2
"HSV-1 glycoprotein D, C-terminal truncated mutant gD306 (aa 1-306) (domain or fragment)",stoichiometry N,[2],2
glycoprotein D (gD285) gD285 (from UniProt Q69091),pKd,HVEM (Homo sapiens),7.43
